We go through 1 molecule from patent publication US20190071490A1 (BETH ISRAEL DEACONESS MEDICAL CENTER, published 2019).

For assay [1], the target named is T1, human α-CGRP P29A (25-37) (human, not fully specified).
T1 construct: the entry already carries P29A
T1 peptide: NNFVATNVGSKAF-NH2
Briefly: Biacore, 37°C, G1 Fab titrated over N-biotinylated peptide on chip. How it is done: (§1) All Biacore assays were conducted in HBS-EP running buffer (10 mM HEPES pH 7.4, 150 mM NaCl, 3 mM EDTA, 0.005% v/v polysorbate P20). CGRP surfaces were prepared by diluting the N-biotinylated CGRP to a concentration of less than 0.001 mg/mL into HBS-EP buffer and injecting it across the SA sensor chip using variable contact times. […] Samples were typically injected for 1 minute at 100 μL/min and dissociation times of at least 10 minutes were allowed. […] An entire titration series (typically generated in duplicate) was fit globally to a 1:1 Langmuir binding model using the BIAevaluation program. This returned a unique pair of association and dissociation kinetic rate constants (respectively, kₒₙ and koff) for each binding interaction, whose ratio gave the equilibrium dissociation constant (KD=koff/kₒₙ).
A general note: SPR reads the build-up and loss of mass on a sensor chip optically.

The target in assay [2] is T2, human α-CGRP V32A (25-37) (human, not fully specified).
T2 construct: the entry already carries V32A
T2 peptide: NNFVPTNAGSKAF-NH2
The assay is described as above. How it is done: as §1

In the next assay the target is T3, human α-CGRP 25-38A (human, not fully specified).
T3 construct: residues 25-37 with an extra alanine added at the C-terminus (in the entry); also called 38A (25-38A)
T3 peptide: NNFVPTNVGSKAFA-NH2
The description is as above. As to the method: as §1

Assay [3] addresses T4, human α-CGRP N31A (25-37) (human, not fully specified).
T4 construct: the entry already carries N31A
T4 peptide: NNFVPTAVGSKAF-NH2
Described as above. As to the method:
as §1

Assay [4] has as its target T5, human α-CGRP K35A (19-37) (human, also: N-terminal biotin when on the chip).
T5 construct: the entry already carries K35A
T5 peptide: SGGVVKNNFVPTNVGSAAF-NH2
The assay is described as above. How it is done: as §1

For assay [5], the target named is T6, human α-CGRP K35Q (19-37) (human, not fully specified).
T6 construct: the entry already carries K35Q
T6 peptide: SGGVVKNNFVPTNVGSQAF-NH2
Described as above. As to the method: as §1

In assay [6] the target is T7, human α-CGRP V28A (25-37) (human, not fully specified).
T7 construct: the entry already carries V28A
T7 peptide: NNFAPTNVGSKAF-NH2
The assay is described as above. As to the method:
as §1

Assay [7] deals with T8, human α-CGRP T30A (25-37) (human, not fully specified).
T8 construct: the entry already carries T30A
T8 peptide: NNFVPANVGSKAF-NH2
The assay is described as above. How it is done: as §1

In a further assay the target is T9, rat β-CGRP (1-37) (rat, C-terminal amide; N-terminal biotin when captured on the SA chip).
T9 construct: also called rat β (1-37)
T9 peptide: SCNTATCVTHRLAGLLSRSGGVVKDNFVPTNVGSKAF
Description: Biacore, 37°C, Fab over N-biotinylated CGRP on SA chip, 20-min dissociation. How it is done:
as §1, with “Biacore assay for affinity determination. […] All” for “All”

A further assay concerns the target T10, human β-CGRP (1-37) (human, C-terminal amide; N-terminal biotin when captured on the SA chip).
T10 construct: also called human β (1-37)
T10 peptide: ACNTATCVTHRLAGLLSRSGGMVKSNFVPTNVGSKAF
The assay is described as above. How it is done:
as §1, with “Biacore assay for affinity determination. […] All” for “All”

Assay [8] deals with T11, rat α-CGRP (1-37) (rat, C-terminal amide; N-terminal biotin when captured on the SA chip).
T11 construct: also called rat α (1-37); α-rat
T11 peptide: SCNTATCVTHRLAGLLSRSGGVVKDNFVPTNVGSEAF
Briefly: Biacore, 37°C, Fab over CGRP on SA chip. In short, it runs like this:
(§2)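 Fab analyte flowed over N-biotinylated CGRP captured at low density on a streptavidin chip in HBS-EP (pH 7.4), 1-min injections at 100 μL/min, at least 10 min dissociation.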

The target in assay [9] is T12, human α-CGRP 1-37 (WT) (human, C-terminal amide; N-terminal biotin when captured on the SA chip; 125I-labelled in the radioligand assay).
T12 construct: also called α-human
T12 peptide: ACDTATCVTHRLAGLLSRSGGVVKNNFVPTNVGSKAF
Description: Biacore, 37°C, Fab over CGRP on SA chip. Summed up:
as §2

The target in assay [10] is T11, rat α-CGRP (1-37). Description: Biacore, 25°C, Fab over N-biotinylated CGRP on SA chip, high-resolution two-part experiment. How it is done: as §1, with “Biacore assay for affinity determination. […] All” for “All”
(§3) High-resolution analysis of binding interactions with extremely slow off rates. […] The protocol described above was used with the following modifications.

Assay [11] has as its target T12, human α-CGRP 1-37 (WT). The description is as above. How it is done: as §1, with “Biacore assay for affinity determination. […] All” for “All”
as §3

Assay [12] has as its target T12, human α-CGRP 1-37 (WT). Briefly: Biacore, 37°C, high-resolution two-part experiment. How it is done:
as §1, with “Biacore assay for affinity determination. […] All” for “All”
as §3

Ends that are not written are not given here.

B1: antibody G1 Fab fragment (Fab, V domains shown)
VH: EVQLVESGGGLVQPGGSLRLSCAASGFTFSNYWISWVRQAPGKGLEWVAEIRSESDASATHYAEAVKGRFTISRDNAKNSLYLQMNSLRAEDTAVYYCLAYFDYGLAIQNYWGQGTLVTVSS
VL: EIVLTQSPATLSLSPGERATLSCKASKRVTTYVSWYQQKPGQAPRLLIYGASNRYLGIPARFSGSGSGTDFTLTISSLEPEDFAVYYCSQSYNYPYTFGQGTKLEIK
Regarding B1, the Kd in assay [1] was found to be 790 pM; in assay [2] it was 1710 pM; in [3], 530 pM; in [4] it was 1330 pM; in [5] it was 1380 pM; in assay [6] it was 280 pM. In addition, the dissociation constant Kd in assay [7] came to 470 pM; with rat β-CGRP (1-37), 152 pM; with human β-CGRP (1-37) it was 155 pM; in the assay with rat α-CGRP (1-37) [8], 2570 pM; with human α-CGRP 1-37 (WT) [9] it was 63 pM; with rat α-CGRP (1-37) [10] it was 1220 pM. Also, the figures for the Kd with human α-CGRP 1-37 (WT) [11] and with human α-CGRP 1-37 (WT) [12] were 42 pM and 60 pM, respectively. Besides, in the assay with human α-CGRP 25-38A, the binding result is “no binding”.

As a reminder, the Kd is the equilibrium constant for the complex coming apart. A higher Kd goes with weaker binding.
